Results on one molecule are retold here after publication PMC9562052.

Data set [1] addresses Plasmodium falciparum lactate dehydrogenase (PfLDH) (Plasmodium falciparum, UniProt Q76NM3 1-316). Put plainly: ELASA sandwich.
The target of data set [2] is human lactate dehydrogenase (hLDH) (human, UniProt P00338 1-332). Briefly: ELASA sandwich.

Take CTGGGCGGTAGAACCATAGTGACCCAGCCGTCTAC (ssDNA) [2008s aptamer, 3'-biotin]: the binding result in data set [1] was “binds”; in data set [2] it was “no binding”.
